Assay results taken from patent US20240180966A1 (YEDA RESEARCH AND DEVELOPMENT, published 2024).
Blank lines part the entries; values can stand above or below the binder they belong to.

Experiments:
[1] = target: T1, NRAS wild-type (Q61) peptide on HLA-A*01:01 (human); assay: cytokine release
T1 peptide: ILDTAGQEEY

[2] = target: T2, NRAS Q61K (RAS.Q61K; the sequence is shared by NRAS, KRAS and HRAS) peptide on HLA-A*01:01 (human); assay: multimer staining
T2 peptide: ILDTAGKEEY

[3] = target: T3, NRAS Q61R (RAS.Q61R) peptide on HLA-A*01:01 (human); assay: activation reporter or marker
T3 peptide: ILDTAGREEY

HLA-A*01:01 [4] = target: T4, HLA-A*01:01 (human); assay: HLA-peptidomics (W6/32 immunoaffinity, LC-MS/MS) of HLA-A*01:01 mono-allelic 721.221 cells with a RAS.Q61K minigene
T4 construct: whole, on cells; also called HLA allele A*01:01

HLA-A*01:01 [5] = target: T4, HLA-A*01:01; assay: HLA-peptidomics (targeted MS) of HLA-A*01:01 mono-allelic 721.221 cells with a RAS.Q61R minigene

B1: N135.1 (TCR)
alpha TRAV19 TRAJ39 CDR3: CALSESHNNAGNMLTF
beta TRBV6-1 TRBJ1-1 CDR3: CAASQNTEAFF
binding result [1]: no recognition
binding result [2]: recognises
binding result [3]: no recognition

B2: NH2 (TCR)
alpha TRAV19 TRAJ39 CDR3: CALSETINNAGNMLTF
beta TRBV6-1 TRBJ1-1 CDR3: CAASQNTEAFF
binding result [1]: no recognition
binding result [2]: recognises

Binder: ILDTAGKEEY (also called RAS.Q61K-derived neopeptide) [ILDTAGKEEY (SEQ ID NO: 1) neopeptide]
binding result (HLA-A*01:01 [4]): binds

Binder: ILDTAGREEY (also called RAS.Q61R-derived neopeptide) [ILDTAGREEY (SEQ ID NO: 34) neopeptide]
binding result (HLA-A*01:01 [5]): binds

Continued, values first:

binding result [1]: no recognition
binding result [2]: recognises
binding result [3]: no recognition
B3: N17.3.2 (TCR)
alpha TRAV19 TRAJ17 CDR3: CALSESGDAAGNKLTF
beta TRBV6-1 TRBJ1-1 CDR3: CAEGENTEAFF

binding result [1]: no recognition
binding result [2]: recognises
binding result [3]: no recognition
B4: N17.2 (TCR)
alpha TRAV5 TRAJ9 CDR3: CAESSGGGFKTIF
beta TRBV6-6 TRBJ2-7 CDR3: CASSTPGPSAYEQYF
